{"source": "paper PMC11697113", "about": "“The Hsc70 system maintains the synaptic SNARE protein SNAP-25 in an assembly-competent state and delays its aggregation [drawing 1]” (The Journal of Biological Chemistry, 2024)", "molecules": {"B1": {"name": "Apg2: nucleotide exchange factor, member of the Hsp110 family (protein, UniProt P34932 1-840, looked up)", "Heat shock 70 kDa protein 4": "MSVVGIDLGFQSCYVAVARAGGIETIANEYSDRCTPACISFGPKNRSIGAAAKSQVISNAKNTVQGFKRFHGRAFSDPFVEAEKSNLAYDIVQLPTGLTGIKVTYMEEERNFTTEQVTAMLLSKLKETAESVLKKPVVDCVVSVPCFYTDAERRSVMDATQIAGLNCLRLMNETTAVALAYGIYKQDLPALEEKPRNVVFVDMGHSAYQVSVCAFNRGKLKVLATAFDTTLGGRKFDEVLVNHFCEEFGKKYKLDIKSKIRALLRLSQECEKLKKLMSANASDLPLSIECFMNDVDVSGTMNRGKFLEMCNDLLARVEPPLRSVLEQTKLKKEDIYAVEIVGGATRIPAVKEKISKFFGKELSTTLNADEAVTRGCALQCAILSPAFKVREFSITDVVPYPISLRWNSPAEEGSSDCEVFSKNHAAPFSKVLTFYRKEPFTLEAYYSSPQDLPYPDPAIAQFSVQKVTPQSDGSSSKVKVKVRVNVHGIFSVSSASLVEVHKSEENEEPMETDQNAKEEEKMQVDQEEPHVEEQQQQTPAENKAESEEMETSQAGSKDKKMDQPPQAKKAKVKTSTVDLPIENQLLWQIDREMLNLYIENEGKMIMQDKLEKERNDAKNAVEEYVYEMRDKLSGEYEKFVSEDDRNSFTLKLEDTENWLYEDGEDQPKQVYVDKLAELKNLGQPIKIRFQESEERPKLFEELGKQIQQYMKIISSFKNKEDQYDHLDAADMTKVEKSTNEAMEWMNNKLNLQNKQSLTMDPVVKSKEIEAKIKELTSTCSPIISKPKPKVEPPKEEQKNAEQNGPVDGQGDNPGPQAAEQGTDTAVPSDSDKKLPEMDID"}, "B2": {"name": "CSPαJ: J-domain (residues 1–100) of human CSPα (protein, UniProt Q9H3Z4 1-100, looked up, fragment)", "chain": "MADQRQRSLSTSGESLYHVLGLDKNATSDDIKKSYRKLALKYHPDKNPDNPEAADKFKEINNAHAILTDATKRNIYDKYGSLGLYVAEQFGEENVNTYFV", "modifications": "J-domain", "notes": "J-domain (residues 1–100) of human CSPα"}}, "key": {"Hsc70 [1]": {"molecular_target": "T1, Hsc70 (Homo sapiens, UniProt P11142)", "T1 construct": "6X His-tag (TEV-cleavable) (cleaved yes); made in house; host or cells: E. coli Rosetta (DE3)", "test": "ATPase activity of Hsc70 (malachite green)", "type": "biochemical", "conditions": "for ATPase activity of co-chaperone alone: baseline, protein alone without Hsc70", "text": "Hsp70s consist of an nucleotide-binding domain (NBD) and a substrate-binding domain (SBD). Hsc70 works using an allosteric mechanism whereby substrate binding at the SBD stimulates the ATP hydrolysis rate at the nucleotide-binding domain. The basal ATPase rate of Hsp70 is low, usually about 0.05 ± 0.009 mol Pi/mol protein, and increases when it is stimulated by binding of a peptide to the canonical site in the SBD. We measured the ability of SNAP-25 peptides SNNP and SNCP to stimulate the ATPase rate of Hsc70 (Fig. 5A). SNNP and SNCP binding cause a 1.5-fold increase of the Hsc70 ATPase rate over basal (observed rates upon addition of SNNP and SNCP were 0.089 ± 0.008 and 0.080 ± 0.005, respectively). In order to confirm that peptides are indeed binding at the canonical binding site of Hsc70, we used the V438F mutant that blocks the binding site ([37]). […] The addition of CSPαJ stimulates the ATPase activity of Hsc70 ∼4-fold with and without peptides.\nFigure 5 SNN and SNC peptides interact with the canonical substrate-binding site of Hsc70.A, ATPase activity of Hsc70 (2 μM) in the absence (gray) and presence of 200 μM SNNP (orange) and SNCP (green) peptides. Error bars represent the SDs from three independent experiments. B, binding of SNAP-25 (black), SNNP (orange), LoopP (blue), and SNCP (green) peptides to Hsc70 followed by competition for FITC-p5 peptide using fluorescence anisotropy. Increasing concentrations of the competitors were added to a complex of Hsc70 (5 μM) and FITC-p5 peptide (50 nM). Error bars represent SDs from three independent experiments. C, structure of the canonical substrate-binding site of human HspA1 (PDB 4po2) illustrating the location of Hsc70 residues Ile 403 and Ile 440 in red and green spheres, respectively (N.B., Hsc70 and HspA1 share […] sequence identity). The SBD is shown in gray, bound substrate in cyan sticks, and the side chain of the residue occupying the 0th position in the chaperone (“anchor residue”) in orange ball and sticks. For better visualization of the substrate-binding site, residues 512 to 613, 405 to 408, and 431 were removed in this illustration of the structure. […]\nWe performed ATPase assays to observe the activity of Hsc70 in the presence of SNAP25 peptides. […] Absorbance readings were taken at 620 nm using a BioTek plate reader. […]\n(C) ATPase activity of Hsc70 (at 2 μM) in the absence (grey) and presence of 200 μM SNNP (orange) and L(Loop)-SNCP (green) peptides, and in the absence and presence of CSPa-J and CSPa-J/Apg2. The statistical significance was calculated using one-way ANOVA test with Sidak’s multiple comparison and the Hsc70 ATPase activity […]"}, "[2]": {"test": "SNAP-25 aggregation kinetics by optical density", "type": "biochemical", "conditions": "without SNAP-25, 37 °C", "experimental": "(§1) To test our hypothesis that Hsc70 inhibits SNAP-25 aggregation, we monitored the aggregation kinetics of recombinantly expressed SNAP-25 in the absence and presence of Hsc70 by following optical density at 360 nm (Fig. 2). […] This lag time was elongated to ∼65 h in the presence of Hsc70. In neurons, Hsc70 works in collaboration with its co-chaperone CSPα. […] (Fig. S2A). Apg2 is a member of the Hsp110 family, which is known to suppress protein aggregation ([36]). […] (Fig. S2B).\n(§2) Figure 2 Hsc70 delays the aggregation of SNAP-25. Aggregation kinetics of SNAP-25 (50 μM) at 37 °C. Optical density of SNAP-25 was recorded at 360 nm in the absence (black) and in the presence of Hsc70 (5 μM, red), and Hsc70+CSPαJ (5 μM each, blue).\n(§3) Aggregation of SNAP-25 at 50 μM was followed by measuring the A360 in a 96-well plate using a BioTek plate reader (BioTek), at 37 °C with shaking at 300 rpm, in the absence and presence of Hsc70 and CSPαJ at 5 μM each, and Apg2 at 0.5 μM. The aggregation buffer included 20 mM phosphate buffer pH 7.4, 100 μM MgCl2, and 100 mM KCl, and an ATP-experiment was carried out using regeneration system (5 mM 2-phosphoenolpyruvate, 0.05 mg/ml pyruvate kinase, and 5 mM ATP), as described previously ([51]).\n(§4) Figure SI 2. Apg2 enhances the effect of Hsc70 on SNAP-25. (A) Aggregation kinetics of SNAP-25 (50 μM) at 37 °C. OD600 of SNAP-25 was recorded in the absence (black) and in the presence of Hsc70, Hsc70+CSPa-J (blue) and Hsc70+CSPa-J+Apg2 (turquoise). […]\n(§5) concentrations are SNAP-25 (50 μM), Hsc70 (5 μM), CSPa-J (5 μM) and Apg2 (0.5 μM).\n(§6) (B) Aggregation kinetics of SNAP-25 (50 μM) at 37 °C. OD600 of SNAP-25 was recorded in the absence (black) and in the presence of Apg2 (blue). […]"}, "SNAP-25": {"tested_on": "SNAP-25", "test": "SNAP-25 aggregation kinetics by optical density", "type": "biochemical", "conditions": "SNAP-25 50 μM", "experimental": "as §1, §2, §3, §4, §5, §6"}, "Hsc70 [3]": {"molecular_target": "T1, Hsc70", "test": "SNAP-25 cellulose-bound peptide array probed with Hsc70", "type": "binding", "conditions": "Hsc70 with CSPαJ vs Hsc70 alone", "text": "To explore in greater depth the binding sites for Hsc70 in SNAP-25, we screened a cellulose-bound peptide array spanning the full SNAP-25 sequence with 13-residue long peptides, overlapping by ten residues, and probed with Hsc70 in the presence of a two-fold excess of ATP and ten-fold excess of ADP. The binding of Hsc70 to sites in the array was then visualized with an anti-Hsc70 primary antibody and a horse radish peroxidase-tagged secondary antibody to enable visualization by chemiluminescence (Fig. 4A). To quantitatively analyze the array, we used ImageJ (https://imagej.net/ij/) and plotted the intensity under the area for each spot. […] One site is located in the SNN, one in the LOOP, and one in the LOOP-SNC region (called SNC site) (Fig. 4A) […] (Fig. 1C). […] The binding site in the LOOP region is very close to the cysteine residues that become palmitoylated as SNAP-25 moves to its membrane-localized state. It is formally possible that Hsc70 binds to SNAP-25 in the initial un-palmitoylated state and dissociates upon palmitoylation and association with the plasma membrane. […]\nB, quantification of the spots from Figure 4A using ImageJ (Hsc70 (gray) and Hsc70-CSPαJ (dark gray)). […]\nA peptide array of SNAP-25 was obtained from CEM corporation. […] The chemiluminescence was captured in a G-box (Syngene), and the images were analyzed using ImageJ."}, "[4]": {"conditions": "OD600 (Fig. S2A), Hsc70 5 μM, CSPa-J 5 μM, Apg2 0.5 μM"}}, "data": [{"molecule": "B1", "values": [{"measurement": "effect of Apg2 on Hsc70 ATPase activity", "setting": "Hsc70 [1]; Hsc70 2 μM with CSPαJ, with Apg2 (Fig. S2C)", "result": "not further increased"}, {"measurement": "ATPase activity of co-chaperone alone", "setting": "Hsc70 [1]", "result": "no ATPase activity"}, {"measurement": "aggregation of the chaperone alone", "setting": "[2]; [4]", "result": "exhibit no aggregation"}, {"measurement": "effect of Apg2 alone on SNAP-25 aggregation", "setting": "SNAP-25; Apg2 without Hsc70/CSPαJ, 37 °C (Fig. S2B)", "result": "no significant effect"}, {"measurement": "effect of Apg2 on SNAP-25 aggregation kinetics with Hsc70-CSPαJ", "setting": "SNAP-25; Hsc70 5 μM, CSPαJ 5 μM, Apg2 0.5 μM, 37 °C (Fig. S2A)", "result": "further elongated"}]}, {"molecule": "B2", "values": [{"measurement": "stimulation of Hsc70 ATPase activity by CSPαJ", "setting": "Hsc70 [1]; Hsc70 2 μM, with and without peptides", "result": "~4", "unit": "fold"}, {"measurement": "ATPase activity of co-chaperone alone", "setting": "Hsc70 [1]", "result": "no ATPase activity"}, {"measurement": "effect of CSPαJ on specificity of Hsc70 binding to SNAP-25 array", "setting": "Hsc70 [3]", "result": "does not change the specificity of Hsc70 binding to SNAP-25"}, {"measurement": "aggregation of the chaperone alone", "setting": "[2]; OD 360 nm (Fig. 2)", "result": "no aggregation"}, {"measurement": "aggregation of the chaperone alone", "setting": "[2]; [4]", "result": "exhibit no aggregation"}, {"measurement": "effect of CSPαJ on lag time of SNAP-25 aggregation with Hsc70", "setting": "SNAP-25; Hsc70 and CSPαJ 5 μM each, 37 °C, OD 360 nm", "result": "elongates the lag time of SNAP-25 aggregation"}]}]}
